Experimental data: patent publication US20220411514A1, “ANTI-GAL3 ANTIBODIES AND METHODS OF USE FOR INSULIN RESISTANCE” (TrueBinding, Inc., priority 2021, published 2022)

How the values were obtained:
Type in all cases: binding
Conditions in all cases: Example 14
mouse Gal3 = mouse Gal3 (Mus musculus, UniProt P16110); experiment: Affinity kinetics to mouse Gal3 (Carterra LSA)
Procedure: (§1) Kinetics experiments were performed on a Carterra LSA at 25° C.
(§2) Then, a dilution series of Gal3 (2, 4, 8, 16, 32, 64, and 128 nM) in HBSTE with 0.5 mg/mL BSA was injected to the whole array for 300 seconds to allow association followed by dissociation for 240 seconds. The kinetics constants were calculated by the software NextGenKIT.
(§3) The affinity of Gal3 binding to antibody was determined by acquiring real time Ligand:Analyte binding kinetics data and fitting the data with a 1:1 monovalent binding model. The kinetic evaluation procedure determines association and dissociation constants by fitting the experimental data to a 1:1 interaction model between analyte A and ligand B:
(§4) The affinity KD is the result of Kd divided by Ka.
(§5) The protocol disclosed in Example 9 was generally followed.

human Gal3 = molecular target: T1, human Gal3 (Homo sapiens, UniProt P17931); experiment: Affinity kinetics to human Gal3 (Carterra LSA)
T1 construct: 6xHis (linker-spaced) (C); purchased AcroBio (Acro Biosystems) GA3-H5129
T1 sequence (P17931 whole entry): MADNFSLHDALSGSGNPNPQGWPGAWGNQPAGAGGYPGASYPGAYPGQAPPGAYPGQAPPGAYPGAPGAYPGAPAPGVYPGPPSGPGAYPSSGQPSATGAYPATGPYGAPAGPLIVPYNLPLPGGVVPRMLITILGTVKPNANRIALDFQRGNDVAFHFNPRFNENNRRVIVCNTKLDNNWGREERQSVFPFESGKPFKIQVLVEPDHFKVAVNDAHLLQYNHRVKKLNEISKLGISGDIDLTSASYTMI
Procedure: as §1, §2, §3, §4, §5

His-EK-ratGal3 = molecular target: T2, His-EK-ratGal3 (Rattus norvegicus, UniProt P08699); experiment: Affinity kinetics to rat Gal3 (Biacore T200)
T2 sequence (P08699 1-262): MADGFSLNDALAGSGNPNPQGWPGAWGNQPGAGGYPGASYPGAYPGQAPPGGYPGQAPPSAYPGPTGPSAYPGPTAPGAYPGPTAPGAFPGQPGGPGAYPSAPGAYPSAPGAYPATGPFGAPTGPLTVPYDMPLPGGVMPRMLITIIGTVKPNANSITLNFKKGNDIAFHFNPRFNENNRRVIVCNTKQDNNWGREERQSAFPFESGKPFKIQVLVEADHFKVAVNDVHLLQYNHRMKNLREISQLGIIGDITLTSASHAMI
Procedure: In each sample cycle, duplicates of the same antibody in HBS-EP+ with 0.5 mg/mL BSA at 10 μg/mL were captured to FC2 and FC4 by flowing at 10.0 μL/min for 120 seconds, and then diluted His-EK-ratGal3 in HBS-EP+ with 0.5 mg/mL BSA was injected to all 4 flow cells at 30.0 μL/min for 180 seconds, followed by dissociation for 240 seconds. A dilution series of His-EK-ratGal3 started from 300 nM, and was 1:3 diluted for 6 points. FC1 and FC3 were used as reference flow cells, and their sensograms were subtracted from FC2 and FC4 respectively to reduce non-specific binding background. Also, an additional sample cycle at 0 nM analyte was run, and its sensogram was subtracted from those of non-zero nM cycles to address machine drifts and bulk shifts. The data were analyzed by Biacore Evaluation software version 2.0. The binding affinities were characterized by fitting the kinetic sensograms to a monovalent binding model (1:1 binding).
as §3, §4, §5

His-EK-cynoGal3 = experiment: Affinity kinetics to cynomolgus Gal3 (Biacore T200)
Procedure: In each cycle, duplicates were made by loading the same antibody to flow cells FC2 and FC4, and then analyte was flowed to all 4 flow cells. The detection was done pairwise, FC2-FC1 and FC4-FC3, to subtract non-specific binding of analyte to the surface. A cycle of 0 nM analyte was run prior to a dilution series of analyte. The 0 nM raw data were subtracted from each non-zero concentration data to minimize machine drifts. The data were analyzed by Biacore Evaluation software version 2.0. The binding affinities were characterized by fitting the kinetic sensograms to a monovalent binding model (1:1 binding).
as §3, §4, §5

Chain of mouse Gal3 (P16110 whole entry): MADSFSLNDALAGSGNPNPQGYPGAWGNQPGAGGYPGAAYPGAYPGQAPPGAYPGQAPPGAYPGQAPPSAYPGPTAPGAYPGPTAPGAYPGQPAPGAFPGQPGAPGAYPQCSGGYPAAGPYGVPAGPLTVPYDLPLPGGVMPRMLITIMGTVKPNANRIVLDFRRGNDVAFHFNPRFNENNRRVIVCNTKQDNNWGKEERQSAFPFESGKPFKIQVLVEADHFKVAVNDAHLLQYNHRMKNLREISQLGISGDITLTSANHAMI

For “Synagis: negative control antibody, hIgG4 backbone [reference compound]”, the “average affinity to mouse Gal3” value (mouse Gal3) was “did not show any binding activity”, the “average affinity to human Gal3” value (human Gal3) was “did not bind” and the “average affinity to His-EK-ratGal3” value (His-EK-ratGal3) was “did not bind”. For the same substance, the “affinity to His-EK-cynoGal3” value (His-EK-cynoGal3) was “did not bind”.
